Laboratory results as given in paper PMC4650713 (2015).

Target: BaxΔC21 (UniProt Q07812 1-171, C62S | C126S)
Assay: SPR

Chain of BaxΔC21 (Q07812 1-171 C62S/C126S): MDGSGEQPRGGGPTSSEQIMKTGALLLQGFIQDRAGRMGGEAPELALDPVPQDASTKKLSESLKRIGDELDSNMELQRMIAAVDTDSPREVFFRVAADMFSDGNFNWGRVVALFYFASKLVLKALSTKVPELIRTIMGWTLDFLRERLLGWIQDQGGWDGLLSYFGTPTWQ

IC50 [nM] | Binder
306 | SESQEDIIRNIARHLAQVGDSMDRSIPPGLVNGL [BidBH3 peptide]
41 | SESQEDIIRNIARHLRQVGDSMDRSIPPGLVNGL [BidBH3 A91R]
